Results: publication PMC4771820

Target: Paracoccus denitrificans FnrP (Paracoccus denitrificans)
Test: SEC; analytical gel filtration under anaerobic conditions, calibrated Sephacryl S-100HR 16/50, assay buffer (25 mM HEPES, 2.5 mM CaCl2, 100 mM NaCl, 100 mM NaNO3, pH 7.5), 1 ml/min; reconstituted [4Fe–4S] FnrP (~90 % loaded) loaded at ~28 μM [4Fe–4S], in the absence of O2

stoichiometry N: 2
Substance: Paracoccus denitrificans FnrP (natural protein)
